From patent US20210017289A1 (AbbVie / Abbott, published 2021) come the findings set out here.

Changes are numbered by the printed parent chain. Several values for one entry are separate records, joined by “and”; a condition that tells them apart may be missing. Equal entries are not always repeated. Where two headings read alike, the source gives them in different places.

For test [1], the target named is T1, human OX40 expressed on cells (human, UniProt P43489 29-277).
T1 sequence: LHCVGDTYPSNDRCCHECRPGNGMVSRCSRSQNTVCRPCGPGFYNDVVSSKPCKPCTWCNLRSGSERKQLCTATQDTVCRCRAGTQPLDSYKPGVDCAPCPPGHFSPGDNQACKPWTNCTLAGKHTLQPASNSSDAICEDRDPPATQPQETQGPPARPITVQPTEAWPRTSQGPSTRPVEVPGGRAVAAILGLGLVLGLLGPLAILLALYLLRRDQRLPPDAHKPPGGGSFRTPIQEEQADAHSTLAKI
In words: cell-based or functional assay.

The target of test [2] is T2, recombinant soluble human OX40 ECD (residues 1-216) (human, UniProt P43489 29-216).
T2 construct: Purchased from Creative Biomart and further purified by gel filtration; also called recombinant extracellular domain of human OX40
T2 sequence: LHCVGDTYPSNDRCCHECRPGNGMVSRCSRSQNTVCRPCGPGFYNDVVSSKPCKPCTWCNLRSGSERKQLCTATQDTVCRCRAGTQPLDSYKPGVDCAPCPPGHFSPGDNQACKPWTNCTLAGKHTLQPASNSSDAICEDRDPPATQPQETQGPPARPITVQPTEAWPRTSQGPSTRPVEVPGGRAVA
The test can be described thus: SPR (Biacore T200, 25 °C), antibody captured by anti-Fc, OX40 ECD as analyte. The protocol:
The binding kinetics of an anti-OX40 antibody to recombinant soluble OX40 ECD (extracellular domain) were determined by surface plasmon resonance-based measurements made on a Biacore T200 instrument (GE Healthcare) at 25° C. using an anti-Fc capture assay approach. Recombinant extracellular domains (ECDs) of human OX40 (residues 1-216) and rhesus macaque OX40 (residues 28-214) were purchased (Creative Biomart) and further purified by gel filtration using Superdex200 (GE Healthcare) in 10 mM 4-(2-hydroxyethyl)-1-piperazineethanesulfonic acid (HEPES), pH 7.4, 150 mM NaCl, 3 mM ethylenediaminetetraacetic acid (EDTA). Rhesus macaque (Macaca mulatta) OX40 is identical to cynomolgus monkey (Macaca fascicularis) OX40 (SEQ ID NO:2) at the amino acid level. Chip preparation and binding kinetic measurements were made in the assay buffer HBS-EP+(10 mM HEPES, pH 7.4, 150 mM NaCl, 3 mM EDTA, 0.05% Tween 20). For anti-Fc capture chip preparation, approximately 2000 Resonance Units (RU) of goat anti-human IgG Fc polyclonal antibody (Thermo Fisher Scientific Inc.), diluted to 25 μg/mL in 10 mM sodium acetate (pH 4.5), was directly immobilized across a CMS biosensor chip using a standard amine coupling kit according to manufacturer's instructions and procedures. Unreacted moieties on the biosensor surface were blocked with ethanolamine. For binding kinetics measurements each assay cycle consisted of the following steps: 1) capture of test anti-OX40 antibody on test surface only; 2) analyte injection (OX40 ECD or buffer only) over both reference and test surface, 240 μL at 80 μL/min, after which the dissociation was monitored for 900 seconds at 80 μL/min; 3) regeneration of capture surface by 10 mM Glycine-HCl, pH 1.5 injections over both reference and test surface. During the assay, all measurements were referenced against the capture surface alone (i.e., with no captured test antibody) and buffer-only injections were used for double referencing. OX40 injections ranged in concentration from 900 nM or 300 nM to 11.11 nM in a randomized 9- or 3-fold dilution series, respectively. Data were processed and fitted globally to a 1:1 binding model using Biacore T200 Evaluation software to determine the binding kinetic rate constants, kₐ (M⁻¹s⁻¹) and kd (s¹), and the equilibrium dissociation constant KD (M).
On the technique in general: In SPR one partner is held on a chip, and binding of the other changes the refractive index at the surface.

Test [3] has as its target T1, human OX40 expressed on cells. In words: flow cytometry on Jurkat NF-κB reporter cells expressing human OX40. The protocol: A Jurkat NF-κB reporter cell line expressing human OX40 protein was cultured in DMEM containing 10% FBS and penicillin/streptomycin (pen/strep). For the binding assay, each cell line was resuspended at 5 million cells per mL. 50 μL (250,000 cells)/well were transferred to each well of a 500 μL polypropylene 96-well plate (Nunc). A 2× stock of test anti-OX40 antibody or isotype control mAb was prepared in a separate dilution plate at 666, 333, 111, 37.03, 12.34, 4.11, 0.457, 0.152, 0.0508, 0.0169, 0.00564 nM in culture media. Each antibody (50 μL/well) was transferred into respective wells of the assay plate. Cells were incubated with the test anti-OX40 antibody or isotype control antibodies for 30 minutes at 4° C. and washed twice with 250 μL/well of PBS by centrifuging at 800 rpm for 3 minutes. Bound antibody was detected with Cy5-Donkey anti-human IgG (H+L) (Jackson ImmunoResearch) diluted to 2 μg/mL (50 μL/well) in PBS for 30 minutes at 4° C. Cells were washed once with 250 μL/well of PBS, resuspended in PBS containing 1% Formaldehyde and analyzed on a dual laser FACSCalibur (Becton Dickinson).
(A flow cytometer gives signals particle by particle.)

For test [4] the target is unchanged. In words: cell-based or functional assay. This is another data set of the same source.
For test [5] the target is unchanged. In words: flow cytometry competition on human OX40-expressing Jurkat cells; OX40L titrated against 0.2 µg/mL Hu3738 (competitor).
For test [6] the target is unchanged. In words: competition by flow cytometry on Jurkat-NF-κB-huOX40 cells; competitor: ALEXA FLUOR 647-labeled Hu3738 at 2 µg/mL. The protocol:
Analysis was performed by flow cytometry.

The target is the same in test [7]. The test can be described thus: cell-based or functional assay. The source holds these as a separate data set.

Turning to Isotype control antibody, in test [1], the EC50 With Cross-linker (nM), NF-κB signaling is greater than 100 µg/mL and the EC50 Without Cross-linker (nM), NF-κB signaling was greater than 100 µg/mL.

B1: 18D8 (antibody, human IgG1, V domains shown)
VH: EVQLVESGGGLVQPGRLSRLSCAASGFTFDDYAMHWVRQAPGKGLEWVSGISWNSGSIGYADSVKGRFTISRENAKNSLYLQMNSLRAEDTALYYCAKDQSTADYYFYYGMDVWGQGTTVTVSS
VL: EIVVTQSPATLSLSPGERATLSCRASQSVSSYLAWYQQKPGQAPRLLIYDASNRATGIPARFSGSGSGTDFTLTISSLEPEDFAVYYCQQRSNWPTFGQGTKVEIK
notes: also called literature anti-OX40 antibody 18D8
What is called Kd is the constant that tells how readily two partners part at equilibrium. One may read the koff as the rate constant with which the complex falls apart. A word on the EC50: it is the concentration at which the effect is half-maximal. Read a high EC50 as a less potent agent. For B1, in test [2], the Kd came to 9.1 nM and the koff came to 0.11 s⁻¹. The same molecule registered an EC50 in test [3] of 0.258 µg/mL. In test [4], the “EC50 With Cross-linker (nM), NF-κB signaling” value (from here on “EC50 With Cross-linker (nM)”) turned out to be 0.5 nM and the “EC50 Without Cross-linker (nM), NF-κB signaling” value (“EC50 Without Cross-linker (nM)” below) is greater than 100 µg/mL.

B2: soluble human OX40 ligand (OX40L) (ligand)
chain: QVSHRYPRIQSIKVQFTEYKKEKGFILTSQKEDEIMKVQNNSVIINCDGFYLISLKGYFSQEVNISLHYQKDEEPLFQLKKVRSVNSLMVASLTYKDKVYLNVTTDNTSLDDFHVNGGELILIHQNPGEFCVL
notes: also called CD252; TNFSF4
The IC50 is the concentration needed to halve the response being measured. For the molecule B2, in test [5], the IC50 was 0.067 nM and 0.01 µg/mL.

B3: 106-222 (antibody, human IgG1, V domains shown)
VH: QVQLVQSGSELKKPGASVKVSCKASGYTFTDYSMHWVRQAPGQGLKWMGWINTETGEPTYADDFKGRFVFSLDTSVSTAYLQISSLKAEDTAVYYCANPYYDYVSYYAMDYWGQGTTVTVSS
VL: DIQMTQSPSSLSASVGDRVTITCKASQDVSTAVAWYQQKPGKAPKLLIYSASYLYTGVPSRFSGSGSGTDFTFTISSLQPEDIATYYCQQHYSTPRTFGQGTKLEIK
notes: 2013/0280275
In the case of B3, the “IC50 (read off the curve)” value in test [6] is roughly 1 µg/mL. In test [4], the “EC50 With Cross-linker (nM)” value amounted to 0.63 nM and the “EC50 Without Cross-linker (nM)” value was greater than 100 µg/mL.

B4: 119-122 (antibody, human IgG1, V domains shown)
VH: EVQLVESGGGLVQPGGSLRLSCAASEYEFPSHDMSWVRQAPGKGLELVAAINSDGGSTYYPDTMERRFTISRDNAKNSLYLQMNSLRAEDTAVYYCARHYDDYYAWFAYWGQGTMVTVSS
VL: EIVLTQSPATLSLSPGERATLSCRASKSVSTSGYSYMHWYQQKPGQAPRLLIYLASNLESGVPARFSGSGSGTDFTLTISSLEPEDFAVYYCQHSRELPLTFGGGTKVEIK
For the molecule B4, in test [4], the “EC50 With Cross-linker (nM)” value amounted to 0.34 nM and the “EC50 Without Cross-linker (nM)” value is greater than 100 µg/mL.

B5: 1A7 (antibody, human IgG1, V domains shown)
VH: EVQLQQSGPELVKPGASVKISCKASGYTFTDSYMSWVKQSHGKTLEWIGDMYPDNGDSSYNQKFREKVTLTVDKSSTTAYMEFRSLTSEDSAVYYCVLAPRWYFSVWGTGTTVTVSS
VL: DIQMTQTTSSLSASLGDRVTISCRASQDISNYLNWYQQKPDGTVKLLIYYTSRLRSGVPSRFSGSGSGKDYFLTISNLEQEDVAAYFCQQGHTLPPTFGGGTKLEIK
notes: 2015/0307617; also called literature anti-OX40 antibody 1A7
For the molecule B5, in test [7], the “EC50 With Cross-linker (nM)” value worked out at 0.066 nM and the “EC50 Without Cross-linker (nM)” value is greater than 100 µg/mL. Besides, in test [6], the “IC50 (read off the curve)” value is roughly 0.6 µg/mL.

B6: Hu3739 (antibody, V domains shown)
VH: EVQLVQSGAEVKKPGSSVKVSCKASGFNIKDTYMHWVRQAPGQGLEWIGRIDPANGNTKYDPKFQGRATITADTSTNTAYMELSSLRSEDTAVYYCARGGPAWFVYWGQGTLVTVSS
VL: DIQMTQSPSSLSASVGDRVTITCRASQDISNYLNWYQQKPGKAPKLLIYYTSRLRSGLPSRFSGSGSGTDYTLTISSLQPEDFATYYCQQGNTLPWTFGGGTKVEIKR
notes: Humanized antibody; also called Hu3739 VH.1b / Hu3739 VL.1b
As for B6, in test [2], the dissociation constant (Kd) amounted to 360 nM and the koff turned out to be 0.016 s⁻¹.

B7: Hu3741 (antibody, V domains shown)
VH: EVQLVESGGGLVQPGGSLRLSCAVSGFSLTSYGVHWVRQAPGKGLEWLGVIWSGGSTDYNAAFISRLTISKDNSKSTVYLQMNSLRAEDTAVYYCAREEFDYWGQGTTVTVSS
VL: B6 VL with Y36F, R55H, L58V, N92Y, W96P
notes: Humanized antibody; also called Hu3741 VH.2b / Hu3741 VL.1c
Regarding B7, in test [2], the Kd turned out to be 3000 nM and the koff was 0.31 s⁻¹.
